Results as given in US20260139026A1 (published 2026).

Tests used:
[1] = target: T1, PIK3CA H1047L (8-mer) peptide on HLA-A*03:01 (human); assay: cytokine release
T1 peptide: LHGGWTTK

[2] = target: T2, PIK3CA H1047L (10-mer) peptide on HLA-A*03:01 (human); assay: cytokine release
T2 peptide: DALHGGWTTK

[3] = target: T3, PIK3CA H1047L peptide on HLA-A*03:01 (human); assay: multimer staining
T3 peptide: ALHGGWTTK

- binding result [1]: recognises
- binding result [2]: recognises
- binding result [3]: recognises
B1: 1022T8 (TCR, V domains shown)
Valpha: GDSVTQMEGPVTLSEEAFLTINCTYTATGYPSLFWYVQYPGEGLQLLLKATKADDKGSNKGFEATYRKETTSFHLEKGSVQVSDSAVYFCALTVGGSYIPTFGRGTSLIVHP
Vbeta: DTEVTQTPKHLVMGMTNKKSLKCEQHMGHRAMYWYKQKAKKPPELMFVYSYEKLSINESVPSRFSPECPNSSLLNLHLHALQPEDSALYLCASSQGGQGWRETQYFGPGTRLLVL
